The record followed here is patent US20210147547A1.

For the test, the target named is PD-L1 (UniProt Q9NZQ7). Kind of test: in vitro Biacore assay (SPR); format not stated. A general note: Surface plasmon resonance follows binding to a sensor surface in real time, without labels.
Sequence of UniProt Q9NZQ7 (Q9NZQ7 19-238 limits assumed): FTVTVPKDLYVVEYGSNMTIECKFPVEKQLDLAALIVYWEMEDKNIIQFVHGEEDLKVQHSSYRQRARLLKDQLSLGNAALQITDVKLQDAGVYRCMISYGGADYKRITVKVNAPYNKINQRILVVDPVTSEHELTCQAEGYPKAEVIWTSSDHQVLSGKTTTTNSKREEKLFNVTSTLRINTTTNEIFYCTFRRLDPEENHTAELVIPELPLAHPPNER

One may read the Kd as the free concentration of one partner at which half of the binding sites on the other are occupied at equilibrium, for simple one-to-one binding. Substance FAZ053 (antibody) gave a Kd of 0.14 nM.
